Patent US10640547B2, “Immunotherapy against melanoma and other cancers” (IMMATICS BIOTECHNOLOGIES GMBH, priority 2016, dated 2020)

Molecular target: HLA-A*02:01 (Homo sapiens, UniProt P04439, D140Y/D185E/D98H/E176V/E277Q/G131W/G231S/I119V/I121R/I166T/I218V/L300P/L318F/N151K/N90K/P208A/P217A/Q86G/Q94H/R138H/R169H/T345S)
Assay: MHC binding assay (UV-ligand exchange, β2m ELISA)
Details: MHC class I binding score; binding to HLA-A*02:01 ranged by peptide exchange yield (UV-ligand exchange, β2m ELISA)
Excerpt: Candidate peptides for T cell based therapies according to the present invention were further tested for their MHC binding capacity (affinity). The individual peptide-MHC complexes were produced by UV-ligand exchange, where a UV-sensitive peptide is cleaved upon UV-irradiation, and exchanged with the peptide of interest as analyzed. Only peptide candidates that can effectively bind and stabilize the peptide-receptive MHC molecules prevent dissociation of the MHC complexes. To determine the yield of the exchange reaction, an ELISA was performed based on the detection of the light chain (β2m) of stabilized MHC complexes. The assay was performed as generally described in Rodenko et al. (Rodenko et al., 2006).
96 well MAXISorp plates (NUNC) were coated over night with 2 ug/ml streptavidin in PBS at room temperature, washed 4× and blocked for 1 h at 37° C. in 2% BSA containing blocking buffer. Refolded HLA-A*02:01/MLA-001 monomers served as standards, covering the range of 15-500 ng/ml. Peptide-MHC monomers of the UV-exchange reaction were diluted 100 fold in blocking buffer. Samples were incubated for 1 h at 37° C., washed four times, incubated with 2 ug/ml HRP conjugated anti-β2m for 1 h at 37° C., washed again and detected with TMB solution that is stopped with […]. Absorption was measured at 450 nm. Candidate peptides that show a high exchange yield (preferably higher than 50%, most preferred higher than 75%) are generally preferred for a generation and production of antibodies or fragments thereof, and/or T cell receptors or fragments thereof, as they show sufficient avidity to the MHC molecules and prevent dissociation of the MHC complexes.

Substance	Peptide exchange
1 (FLDVKELML; listed as Homo sapiens) [compound 1]	++++ (>75% = ++++)
2 (VLLGENVEL; listed as Homo sapiens) [compound 2]	+++ (>50 = +++)
5 (ILDEGHILQL; listed as Homo sapiens) [compound 5]	++++ (>75% = ++++)
6 (SIPDTIASV; listed as Homo sapiens) [compound 6]	+++ (>50 = +++)
7 (NLQEKVPEL; listed as Homo sapiens) [compound 7]	+++ (>50 = +++)
19 (VLAVLGAVVAV; listed as Homo sapiens) [compound 19]	+++ (>50 = +++)
22 (KLLELQELVL; listed as Homo sapiens) [compound 22]	++++ (>75% = ++++)
23 (FLGDPPPGL; listed as Homo sapiens) [compound 23]	+++ (>50 = +++)
24 (SLVAILHLL; listed as Homo sapiens) [compound 24]	+++ (>50 = +++)
25 (FIDPEQIQV; listed as Homo sapiens) [compound 25]	+++ (>50 = +++)
26 (KIEDLIKYL; listed as Homo sapiens) [compound 26]	+++ (>50 = +++)
27 (TLWYVPLSL; listed as Homo sapiens) [compound 27]	++++ (>75% = ++++)
28 (IVDNTTMQL; listed as Homo sapiens) [compound 28]	+++ (>50 = +++)
29 (ILDDVAMVL; listed as Homo sapiens) [compound 29]	+++ (>50 = +++)
30 (VLFPMDLAL; listed as Homo sapiens) [compound 30]	+++ (>50 = +++)
32 (GLDIITNKV; listed as Homo sapiens) [compound 32]	+++ (>50 = +++)
35 (ALFAAGANV; listed as Homo sapiens) [compound 35]	+++ (>50 = +++)

Substance	Peptide exchange
36 (SVNGFISTL; listed as Homo sapiens) [compound 36]	++ (>20% = ++)
37 (TLKEYLESL; listed as Homo sapiens) [compound 37]	+++ (>50 = +++)
38 (KLGFGTGVNVYL; listed as Homo sapiens) [compound 38]	++++ (>75% = ++++)
39 (ALPPPPASI; listed as Homo sapiens) [compound 39]	+++ (>50 = +++)
40 (LLSNTVSTL; listed as Homo sapiens) [compound 40]	+++ (>50 = +++)
41 (LLDDPTNAHFI; listed as Homo sapiens) [compound 41]	+++ (>50 = +++)
42 (VLKADVVLL; listed as Homo sapiens) [compound 42]	++ (>20% = ++)
43 (LLPDPLYSL; listed as Homo sapiens) [compound 43]	++ (>20% = ++)
44 (FLYTYIAKV; listed as Homo sapiens) [compound 44]	+++ (>50 = +++)
45 (FVYGEPREL; listed as Homo sapiens) [compound 45]	+++ (>50 = +++)
46 (VMSSTLYTV; listed as Homo sapiens) [compound 46]	++++ (>75% = ++++)
47 (ALDSDPVGL; listed as Homo sapiens) [compound 47]	+++ (>50 = +++)
48 (HLIGWTAFL; listed as Homo sapiens) [compound 48]	++++ (>75% = ++++)
49 (ALLSQDFEL; listed as Homo sapiens) [compound 49]	++++ (>75% = ++++)
50 (HLDQIFQNL; listed as Homo sapiens) [compound 50]	++ (>20% = ++)
51 (LIDKIIEYL; listed as Homo sapiens) [compound 51]	++ (>20% = ++)
52 (NLDYAILKL; listed as Homo sapiens) [compound 52]	+ (>10% = +)
